# Assay results reported in the supplement of paper PMC11316812.
# ± gives the standard deviation of the averaged measurements.
# What was measured:
# MCF7 = experiment: percentage of EdU-negative (G0-arrested) nuclei per well, 72 h; higher = more G0 arrest; conditions: reference: sequence is the full UniProt precursor, the tested protein was the secreted form or ectodomain
# hTERT-HMEC = experiment: as above; conditions: reference: sequence is the full UniProt precursor, the tested protein was the secreted form or ectodomain
# [1] = protein concentration 0.0065 µM
# [2] = protein concentration 0.00775 µM
# [3] = protein concentration 0.0775 µM
# [4] = protein concentration 0.0225 µM
# [5] = protein concentration 0.03108 µM
# [6] = protein concentration 0.3108 µM
# [7] = protein concentration 0.0257143 µM
# [8] = protein concentration 0.257143 µM
# [9] = protein concentration 0.0357143 µM
# [10] = protein concentration 0.357143 µM
# [11] = protein concentration 0.02632 µM
# [12] = protein concentration 0.2632 µM
# [13] = protein concentration 0.03125 µM
# [14] = protein concentration 0.3125 µM
# [15] = protein concentration 0.0175 µM
# 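Further: secreted proteins added to cultured cells, EdU pulse at the end, nuclei found by Hoechst imaging, EdU status from nuclear versus surrounding ring intensity ratio, PBS as neutral control.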
sequence,measurement,setting,value
MARPVRGGLGAPRRSPCLLLLWLLLLRLEPVTAAAGPRAPCAAACTCAGDSLDCGGRGLAALPGDLPSWTRSLNLSYNKLSEIDPAGFEDLPNLQEVYLNNNELTAVPSLGAASSHVVSLFLQHNKIRSVEGSQLKAYLSLEVLDLSLNNITEVRNTCFPHGPPIKELNLAGNRIGTLELGAFDGLSRSLLTLRLSKNRITQLPVRAFKLPRLTQLDLNRNRIRLIEGLTFQGLNSLEVLKLQRNNISKLTDGAFWGLSKMHVLHLEYNSLVEVNSGSLYGLTALHQLHLSNNSIARIHRKGWSFCQKLHELVLSFNNLTRLDEESLAELSSLSVLRLSHNSISHIAEGAFKGLRSLRVLDLDHNEISGTIEDTSGAFSGLDSLSKLTLFGNKIKSVAKRAFSGLEGLEHLNLGGNAIRSVQFDAFVKMKNLKELHISSDSFLCDCQLKWLPPWLIGRMLQAFVTATCAHPESLKGQSIFSVPPESFVCDDFLKPQIITQPETTMAMVGKDIRFTCSAASSSSSPMTFAWKKDNEVLTNADMENFVHVHAQDGEVMEYTTILHLRQVTFGHEGRYQCVITNHFGSTYSHKARLTVNVLPSFTKTPHDITIRTTTMARLECAATGHPNPQIAWQKDGGTDFPAARERRMHVMPDDDVFFITDVKIDDAGVYSCTAQNSAGSISANATLTVLETPSLVVPLEDRVVSVGETVALQCKATGNPPPRITWFKGDRPLSLTERHHLTPDNQLLVVQNVVAEDAGRYTCEMSNTLGTERAHSQLSVLPAAGCRKDGTTVGIFTIAVVSSIVLTSLVWVCIIYQTRKKSEEYSVTNTDETVVPPDVPSYLSSQGTLSDRQETVVRTEGGPQANGHIESNGVCPRDASHFPEPDTHSVACRQPKLCAGSAYHKEPWKAMEKAEGTPGPHKMEHGGRVVCSDCNTEVDCYSRGQAFHPQPVSRDSAQPSAPNGPEPGGSDQEHSPHHQCSRTAAGSCPECQGSLYPSNHDRMLTAVKKKPMASLDGKGDSSWTLARLYHPDSTELQPASSLTSGSPERAEAQYLLVSNGHLPKACDASPESTPLTGQLPGKQRVPLLLAPKS [Q96JA1],percentage of EdU-negative,MCF7; [1],25.4 ± 1%
same,percentage of EdU-negative,MCF7; protein concentration 0.065 µM,25.8 ± 3.1%
same,percentage of EdU-negative,hTERT-HMEC; [1],4.69 ± 0.4%
same,percentage of EdU-negative,hTERT-HMEC; protein concentration 0.065 µM,8.75 ± 1.2%
MAQSRVLLLLLLLPPQLHLGPVLAVRAPGFGRSGGHSLSPEENEFAEEEPVLVLSPEEPGPGPAAVSCPRDCACSQEGVVDCGGIDLREFPGDLPEHTNHLSLQNNQLEKIYPEELSRLHRLETLNLQNNRLTSRGLPEKAFEHLTNLNYLYLANNKLTLAPRFLPNALISVDFAANYLTKIYGLTFGQKPNLRSVYLHNNKLADAGLPDNMFNGSSNVEVLILSSNFLRHVPKHLPPALYKLHLKNNKLEKIPPGAFSELSSLRELYLQNNYLTDEGLDNETFWKLSSLEYLDLSSNNLSRVPAGLPRSLVLLHLEKNAIRSVDANVLTPIRSLEYLLLHSNQLREQGIHPLAFQGLKRLHTVHLYNNALERVPSGLPRRVRTLMILHNQITGIGREDFATTYFLEELNLSYNRITSPQVHRDAFRKLRLLRSLDLSGNRLHTLPPGLPRNVHVLKVKRNELAALARGALVGMAQLRELYLTSNRLRSRALGPRAWVDLAHLQLLDIAGNQLTEIPEGLPESLEYLYLQNNKISAVPANAFDSTPNLKGIFLRFNKLAVGSVVDSAFRRLKHLQVLDIEGNLEFGDISKDRGRLGKEKEEEEEEEEEEEETR [Q7Z5L7],percentage of EdU-negative,MCF7; [2],24.5 ± 1.1%
same,percentage of EdU-negative,MCF7; [3],23.2 ± 0.88%
same,percentage of EdU-negative,hTERT-HMEC; [2],4.64 ± 0.6%
same,percentage of EdU-negative,hTERT-HMEC; [3],5.72 ± 1.3%
MDFPCLWLGLLLPLVAALDFNYHRQEGMEAFLKTVAQNYSSVTHLHSIGKSVKGRNLWVLVVGRFPKEHRIGIPEFKYVANMHGDETVGRELLLHLIDYLVTSDGKDPEITNLINSTRIHIMPSMNPDGFEAVKKPDCYYSIGRENYNQYDLNRNFPDAFEYNNVSRQPETVAVMKWLKTETFVLSANLHGGALVASYPFDNGVQATGALYSRSLTPDDDVFQYLAHTYASRNPNMKKGDECKNKMNFPNGVTNGYSWYPLQGGMQDYNYIWAQCFEITLELSCCKYPREEKLPSFWNNNKASLIEYIKQVHLGVKGQVFDQNGNPLPNVIVEVQDRKHICPYRTNKYGEYYLLLLPGSYIINVTVPGHDPHITKVIIPEKSQNFSALKKDILLPFQGQLDSIPVSNPSCPMIPLYRNLPDHSAATKPSLFLFLVSLLHIFFK,percentage of EdU-negative,MCF7; [4],25.2 ± 4.8%
same,percentage of EdU-negative,MCF7; protein concentration 0.225 µM,26.7 ± 1.4%
same,percentage of EdU-negative,hTERT-HMEC; [4],4.44 ± 0.072%
same,percentage of EdU-negative,hTERT-HMEC; protein concentration 0.225 µM,4.97 ± 0.2%
MEFLWAPLLGLCCSLAAADRHTVFWNSSNPKFRNEDYTIHVQLNDYVDIICPHYEDHSVADAAMEQYILYLVEHEEYQLCQPQSKDQVRWQCNRPSAKHGPEKLSEKFQRFTPFTLGKEFKEGHSYYYISKPIHQHEDRCLRLKVTVSGKITHSPQAHDNPQEKRLAADDPEVRVLHSIGHSAAPRLFPLAWTVLLLPLLLLQTP,percentage of EdU-negative,MCF7; [5],24.521 ± 0.0085%
same,percentage of EdU-negative,MCF7; [6],24.81 ± 0.061%
same,percentage of EdU-negative,hTERT-HMEC; [5],6.23 ± 0.24%
same,percentage of EdU-negative,hTERT-HMEC; [6],7.2445 ± 0.004%
MQLQASLSFLLILTLCLELRSELARDTIKDLLPNVCAFPMEKGPCQTYMTRWFFNFETGECELFAYGGCGGNSNNFLRKEKCEKFCKFT,percentage of EdU-negative,MCF7; [7],25.8 ± 1.5%
same,percentage of EdU-negative,MCF7; [8],24.81 ± 0.086%
same,percentage of EdU-negative,hTERT-HMEC; [7],4.34 ± 0.046%
same,percentage of EdU-negative,hTERT-HMEC; [8],4.94 ± 0.32%
MMRTCVLLSAVLWCLTGVQCPRFTLFNKKGFIYGKTGQPDKIYVELHQNSPVLICMDFKLSKKEIVDPTYLWIGPNEKTLTGNNRINITETGQLMVKDFLEPLSGLYTCTLSYKTVKAETQEEKTVKKRYDFMVFAYREPDYSYQMAVRFTTRSCIGRYNDVFFRVLKKILDSLISDLSCHVIEPSYKCHSVEIPEHGLIHELFIAFQVNPFAPGWKGACNGSVDCEDTTNHNILQARDRIEDFFRSQAYIFYHNFNKTLPAMHFVDHSLQVVRLDSCRPGFGKNERLHSNCASCCVVCSPATFSPDVNVTCQTCVSVLTYGAKSCPQTSNKNQQYED [Q6X784],percentage of EdU-negative,MCF7; [9],24.6 ± 1.8%
same,percentage of EdU-negative,MCF7; [10],28.8 ± 3.5%
same,percentage of EdU-negative,hTERT-HMEC; [9],4.95 ± 0.69%
same,percentage of EdU-negative,hTERT-HMEC; [10],6.88 ± 0.23%
MNCRELPLTLWVLISVSTAESCTSRPHITVVEGEPFYLKHCSCSLAHEIETTTKSWYKSSGSQEHVELNPRSSSRIALHDCVLEFWPVELNDTGSYFFQMKNYTQKWKLNVIRRNKHSCFTERQVTSKIVEVKKFFQITCENSYYQTLVNSTSLYKNCKKLLLENNKNPTIKKNAEFEDQGYYSCVHFLHHNGKLFNITKTFNITIVEDRSNIVPVLLGPKLNHVAVELGKNVRLNCSALLNEEDVIYWMFGEENGSDPNIHEEKEMRIMTPEGKWHASKVLRIENIGESNLNVLYNCTVASTGGTDTKSFILVRKADMADIPGHVFTRGMIIAVLILVAVVCLVTVCVIYRVDLVLFYRHLTRRDETLTDGKTYDAFVSYLKECRPENGEEHTFAVEILPRVLEKHFGYKLCIFERDVVPGGAVVDEIHSLIEKSRRLIIVLSKSYMSNEVRYELESGLHEALVERKIKIILIEFTPVTDFTFLPQSLKLLKSHRVLKWKADKSLSYNSRFWKNLLYLMPAKTVKPGRDEPEVLPVLSES,percentage of EdU-negative,MCF7; protein concentration 0.03 µM,26.3 ± 1.8%
same,percentage of EdU-negative,MCF7; protein concentration 0.3 µM,28.5 ± 0.78%
same,percentage of EdU-negative,hTERT-HMEC; protein concentration 0.03 µM,4.552 ± 0.028%
same,percentage of EdU-negative,hTERT-HMEC; protein concentration 0.3 µM,15.3 ± 3%
MRGLLVLSVLLGAVFGKEDFVGHQVLRISVADEAQVQKVKELEDLEHLQLDFWRGPAHPGSPIDVRVPFPSIQAVKIFLESHGISYETMIEDVQSLLDEEQEQMFAFRSRARSTDTFNYATYHTLEEIYDFLDLLVAENPHLVSKIQIGNTYEGRPIYVLKFSTGGSKRPAIWIDTGIHSREWVTQASGVWFAKKITQDYGQDAAFTAILDTLDIFLEIVTNPDGFAFTHSTNRMWRKTRSHTAGSLCIGVDPNRNWDAGFGLSGASSNPCSETYHGKFANSEVEVKSIVDFVKDHGNIKAFISIHSYSQLLMYPYGYKTEPVPDQDELDQLSKAAVTALASLYGTKFNYGSIIKAIYQASGSTIDWTYSQGIKYSFTFELRDTGRYGFLLPASQIIPTAKETWLALLTIMEHTLNHPY,percentage of EdU-negative,MCF7; [11],25.44 ± 0.046%
same,percentage of EdU-negative,MCF7; [12],27.3 ± 3%
same,percentage of EdU-negative,hTERT-HMEC; [11],5.61 ± 0.74%
same,percentage of EdU-negative,hTERT-HMEC; [12],8.13 ± 1.2%
MLRAALPALLLPLLGLAAAAVADCPSSTWIQFQDSCYIFLQEAIKVESIEDVRNQCTDHGADMISIHNEEENAFILDTLKKQWKGPDDILLGMFYDTDDASFKWFDNSNMTFDKWTDQDDDEDLVDTCAFLHIKTGEWKKGNCEVSSVEGTLCKTAIPYKRKYLSDNHILISALVIASTVILTVLGAIIWFLYKKHSDSRFTTVFSTAPQSPYNEDCVLVVGEENEYPVQFD [Q8IX05],percentage of EdU-negative,MCF7; [4],25.83 ± 0.12%
same,percentage of EdU-negative,MCF7; protein concentration 0.225 µM,25.38 ± 0.14%
same,percentage of EdU-negative,hTERT-HMEC; [4],4.48 ± 0.56%
same,percentage of EdU-negative,hTERT-HMEC; protein concentration 0.225 µM,5.29 ± 0.55%
MIPGGLSEAKPATPEIQEIVDKVKPQLEEKTNETYGKLEAVQYKTQVVAGTNYYIKVRAGDNKYMHLKVFKSLPGQNEDLVLTGYQVDKNKDDELTGF,percentage of EdU-negative,MCF7; [13],26.6 ± 0.69%
same,percentage of EdU-negative,MCF7; [14],23.6 ± 2.5%
same,percentage of EdU-negative,hTERT-HMEC; [13],5.99 ± 0.58%
same,percentage of EdU-negative,hTERT-HMEC; [14],5.5 ± 0.67%
MGPPSSSGFYVSRAVALLLAGLVAALLLALAVLAALYGHCERVPPSELPGLRDLEAESSPPLRQKPTPTPKPSSARELAVTTTPSNWRPPGPWDQLRLPPWLVPLHYDLELWPQLRPDELPAGSLPFTGRVNITVRCTVATSRLLLHSLFQDCERAEVRGPLSPGTGNATVGRVPVDDVWFALDTEYMVLELSEPLKPGSSYELQLSFSGLVKEDLREGLFLNVYTDQGERRALLASQLEPTFARYVFPCFDEPALKATFNITMIHHPSYVALSNMPKLGQSEKEDVNGSKWTVTTFSTTPHMPTYLVAFVICDYDHVNRTERGKEIRIWARKDAIANGSADFALNITGPIFSFLEDLFNISYSLPKTDIIALPSFDNHAMENWGLMIFDESGLLLEPKDQLTEKKTLISYVVSHEIGHQWFGNLVTMNWWNNIWLNEGFASYFEFEVINYFNPKLPRNEIFFSNILHNILREDHALVTRAVAMKVENFKTSEIQELFDIFTYSKGASMARMLSCFLNEHLFVSALKSYLKTFSYSNAEQDDLWRHFQMAIDDQSTVILPATIKNIMDSWTHQSGFPVITLNVSTGVMKQEPFYLENIKNRTLLTSNDTWIVPILWIKNGTTQPLVWLDQSSKVFPEMQVSDSDHDWVILNLNMTGYYRVNYDKLGWKKLNQQLEKDPKAIPVIHRLQLIDDAFSLSKNNYIEIETALELTKYLAEEDEIIVWHTVLVNLVTRDLVSEVNIYDIYSLLKRYLLKRLNLIWNIYSTIIRENVLALQDDYLALISLEKLFVTACWLGLEDCLQLSKELFAKWVDHPENEIPYPIKDVVLCYGIALGSDKEWDILLNTYTNTTNKEEKIQLAYAMSCSKDPWILNRYMEYAISTSPFTSNETNIIEVVASSEVGRYVAKDFLVNNWQAVSKRYGTQSLINLIYTIGRTVTTDLQIVELQQFFSNMLEEHQRIRVHANLQTIKNENLKNKKLSARIAAWLRRNT [Q6Q4G3],percentage of EdU-negative,MCF7; [15],22.3 ± 0.34%
same,percentage of EdU-negative,MCF7; protein concentration 0.175 µM,27.4 ± 4.3%
same,percentage of EdU-negative,hTERT-HMEC; [15],5.44 ± 0.3%
same,percentage of EdU-negative,hTERT-HMEC; protein concentration 0.175 µM,16.6 ± 0.49%
